Publication PMC11983205

Target: CD33 (UniProt P20138 18-259)
Assay: LOCK displacement, CHA/Cas12a fluorescence

CD33, sequence (P20138 18-259): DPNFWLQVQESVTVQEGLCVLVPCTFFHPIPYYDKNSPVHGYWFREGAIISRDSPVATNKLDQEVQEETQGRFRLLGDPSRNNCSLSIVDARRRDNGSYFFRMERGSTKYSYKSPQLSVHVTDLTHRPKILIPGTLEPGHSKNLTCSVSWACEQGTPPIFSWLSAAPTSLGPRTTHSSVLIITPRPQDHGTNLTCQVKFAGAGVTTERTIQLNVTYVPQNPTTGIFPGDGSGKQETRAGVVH

B1: CD33 YES gate DNA1/LOCK (mixed)
DNA 1: TAGCTTATCAGACTGATGTTGATACCAGTGCGATGCTCAGCACGCTTATAGGGGCTGGACAAAATTCTACCCAGCCTTTTCTGACGCATTCGGTTGAC
DNA 2: CACTGGTATCAACATCAGTC
binding result: binds
